Reference: paper doi:10.1101/2025.03.12.642685
“And” between values parts separate entries of the source, which are not always exact repeats. Equal values may be shown once.

Columns and labels:
[1] = target: PorK (P. gingivalis (endogenous in P. gingivalis W50 EK18)); assay: cryo-EM structure
[2] = target: PorN (P. gingivalis (endogenous in P. gingivalis W50 EK18)); assay: cryo-EM structure

Substance	stoichiometry N [1]	stoichiometry N [2]
PorK (natural protein)	31 to 35 (2×) and 33	
PorN (natural protein)		31 to 35 (2×) and 33
